Literature values as cited in publication PMC3061978.

Molecular target: methylamine dehydrogenase (MADH) (Paracoccus denitrificans) (UniProt P22619)
Test: kinetics

Chain of UniProt P22619 (P22619 58-188, chain 1 of 2): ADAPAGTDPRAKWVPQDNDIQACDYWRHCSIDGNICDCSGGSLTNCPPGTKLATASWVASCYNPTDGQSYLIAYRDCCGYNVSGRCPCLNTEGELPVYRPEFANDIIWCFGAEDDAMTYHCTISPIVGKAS
Chain of UniProt P22619 (P29894 29-417, chain 2 of 2, further chain): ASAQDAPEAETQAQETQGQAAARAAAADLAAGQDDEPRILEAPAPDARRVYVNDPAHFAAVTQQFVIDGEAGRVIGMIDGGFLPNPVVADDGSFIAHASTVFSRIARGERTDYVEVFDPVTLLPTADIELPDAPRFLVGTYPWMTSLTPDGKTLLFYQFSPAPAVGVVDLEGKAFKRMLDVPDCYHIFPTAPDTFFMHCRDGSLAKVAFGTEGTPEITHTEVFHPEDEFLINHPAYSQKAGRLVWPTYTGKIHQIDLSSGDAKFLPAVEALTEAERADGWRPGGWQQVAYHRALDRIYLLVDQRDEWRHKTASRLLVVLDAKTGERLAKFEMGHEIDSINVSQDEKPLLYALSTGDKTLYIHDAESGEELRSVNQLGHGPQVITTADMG

In the case of MauG (from UniProt Q51658), the Kd is given as 10.1 µM.
